This is an account of results in patent US20120230976.

This series has as its target mixture of gliadins (SIGMA Cat. No. G3375).

B1: neprilysin from Rothia mucilaginosa ATCC 25296 (RefSeq ZP_05367591) (protein)
chain: MTTNSGITKEWVDETVKPGDDFFRHVNGKWLATHEIPADRPKDGGLYTLRDNAEKHVRELVEKIAKEQPESRIGALYNSFMDVEKIEADGLEPLLKEIAPILNSATPSHLAVTLALLSRAGLPQLFAWYTSNDPKDPKNYTFFLYQSGLGLPDESYYREEKHEAACAAYVEHIARMFQLTGLAEGFGLTPEQAAQLVFTHESELARLHWNVVENRDAEATYNPYQATELDEKFPGFPFSQWLLALGADPETLGQVIVAQPSFFEGAAKLFTSIPLMSWKLWAVWTVLRSRAPFMYDELVQESFNFYGKTLSGTQQIRERWKRGVGAVEKALGEEIGQEYVAVHFPPSHKEKMLVLVGNLLEAYRESIESLDWMTEATRQKALEKLSKFVTKIGYPDKWRDFSALELVPGDLFENLRRTGAFDADWLIARKGQPVDKAEWLMTPQTVNAYYMPPANEIVFPAAILQPPYFNPDADDAANYGNIGMIIGHEIGHGFDDQGSRYDGDGKLESWWTEEDYAKFKERTAALVEQYNAYVPVGLDPKFHVNGELTLGENIGDLAGMSIALKAYRLALKKQGIESLADAPVIDGMTGIQRFFFSNARGWCTKSRPQHAEVMISVDPHSPDEFRVNGVVRNIDEFYEAFGVSEGDALYLAPEERVRIW
As for B1, the “gliadin zymography (proteolytic activity)” value was “The clear bands observed in the zymogram gel confirmed proteolytic activity towards gliadin”.
